Biological target: T1, 6X His-tagged extracellular domain of canine PD-L1 (canine, UniProt E2RKZ5)
T1 construct: canine PD-L1 (CD274), extracellular domain; also called cPD-L1-His; His-tagged cPD-L1 protein; source: ExpiCHO cell system, purified (Ni-NTA agarose)
Assay: BLI; Octet RED384; His-tagged cPD-L1 loaded on NTA biosensor at 200 nmol/L; 12C10E4 antibody at 50, 100, 200 nmol/L in kinetic buffer
Details: both partners purified

T1 sequence (E2RKZ5 entry or part of it): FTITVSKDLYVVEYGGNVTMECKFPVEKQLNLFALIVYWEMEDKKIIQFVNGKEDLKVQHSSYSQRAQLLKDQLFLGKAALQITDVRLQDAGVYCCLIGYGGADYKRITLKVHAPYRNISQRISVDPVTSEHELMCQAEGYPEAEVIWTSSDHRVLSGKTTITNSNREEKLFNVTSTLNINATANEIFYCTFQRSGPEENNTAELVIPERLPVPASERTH

B1: 12C10E4 chimeric antibody (12C10E4-cIgG; murine variable regions, canine IgG2 and canine kappa constant regions) (antibody, V domains shown)
VH: QVQLKQSGPGLVQPSQSLSITCTISGFSLTSFGVHWVRQSPGKGLEWLGVIWSGGSTDYNAAFTSRLSINKDNSKSQVFFKMNSLQADDTAIYYCARGGGPDWYFDVWGTGTTVTVSS
VL: DIVLTQSPASLAVSLGQRATISCRASESVEYYGTSLMQWYQQKPGQPPKLLIFAASNVKSGVPARFSGSGSGTDFSLNIHPVEEDDIAMYFCQQSGKVPHTFGGGTKLEIK
notes: VH of the mouse hybridoma 12C10E4; canine IgG2 heavy constant chain (called equivalent to human IgG1); VL of the mouse hybridoma 12C10E4; canine kappa light constant chain; also called 12C chimeric antibody; 12C cPD-L1 chimera antibody; source: ExpiCHO-S, transfected, purified (protein A agarose)
Kd: 8.6 nM

Reference: PMC10184575, “Development of an Anti-canine PD-L1 Antibody and Caninized PD-L1 Mouse Model as Translational Research Tools for the Study of Immunotherapy in Humans” (Cancer Research Communications, 2023)
